# B1: Pistol ribozyme (parent)
# chain: GGGUCGUUGUUCCAUAAUCGCGUGGAUAUGGCACGCAAGUUUCUACCGGGCACCGUAAAUGUCCGACUGGAGCCGUUCGGGCGGCUAUAAACAGACCUCAGGCCCGAAGCGUGGCGGCACCUGCCGCCGGUGGUAAAAAAGAUCGGAAGAGCACACGUCU
# Variants of: B1
# Experiment: aptazyme ON/OFF ratio, guanine; higher = stronger switching; co-transcriptional cleavage with and without guanine
row,Variant,aptazyme ON/OFF ratio
1,U7G U8G G9C U11A C12A,1.31
2,U7G U8G G9C U11A C12G,1.17
3,U7G U8G G9C U11A C12U,1.53
4,U7G U8G G9C U10G C12A C13U,1.14
5,U7G U8G G9C U10G C12A C13A,1.07
6,U7G U8G G9C U10G C12A C13G,1.06
7,U7G U8G G9C U10G U11A C12G C13A,1.06
8,U7G U8G G9C U10G U11A C12G C13G,1.12
9,U7G U8G G9C U10G U11A C12G C13U,1.16
10,U7G U8G G9C U10C U11G C12A C13U,1.3
11,U7G U8G G9C U10C U11G C12A C13A,1.17
12,U7G U8G G9C U10C U11G C12A C13G,1.31
13,U7G U8G G9U U10C U11A C13A,1.38
14,U7G U8G G9U U10C U11A C13G,1.23
15,U7G U8G G9U U10C U11A C13U,1.23
16,U7G U8G G9U U10A U11C C12A C13G,1.08
17,U7G U8G G9U U10A U11C C12A C13A,1.1
18,U7G U8G G9U U10A U11C C12A C13U,1.17
19,U7G U8G G9U,1.51
20,U7G U8G G9C U10G U11G C13A,1.18
21,U7G U8G G9C U10G U11G C13G,1.17
22,U7G U8G G9C U10G U11G C13U,1.28
23,U7G U8G G9C U10C U11C C12U C13U,1.06
24,U7G U8G G9C U10C U11C C12U C13G,1.23

row,Variant,aptazyme ON/OFF ratio
1,U7G U8G G9C U10C U11C C12U C13A,1.08
2,U7G U8G G9U U10A U11C C13A,1.11
3,U7G U8G G9U U10A U11C C13G,1.09
4,U7G U8G G9U U10A U11C C13U,1.07
5,U7G U8G G9U C12G C13G,1.31
6,U7G U8G G9U C12G C13A,1.3
7,U7G U8G G9U C12G C13U,1.27
8,U7G U8G G9U U10C U11G C12U C13A,1.23
9,U7G U8G G9U U10C U11G C12U C13U,1.4
10,U7G U8G G9U U10C U11G C12U C13G,1.24
11,U7G U8G G9U U10C C12U C13G,1.36
12,U7G U8G G9U U10C C12U C13A,1.22
13,U7G U8G G9U U10C C12U C13U,1.35
14,U7G U8G G9U U10G C12A C13U,1.16
15,U7G U8G G9U U10G C12A C13G,1.14
16,U7G U8G G9U U10G C12A C13A,1.09
17,U7G U8G G9C U10G U11A,1.32
18,U7G U8G G9C U10G U11C,1.06
19,U7G U8G G9C U10G U11G,1.26
20,U7G U8G G9U U10A U11G C12A C13U,1.11
21,U7G U8G G9U U10A U11G C12A C13A,1.1
22,U7G U8G G9U U10A U11G C12A C13G,1.04
23,U7G U8G G9U U10A C12U C13A,1.11
24,U7G U8G G9U U10A C12U C13G,1.09

row,Variant,aptazyme ON/OFF ratio
1,U7G U8G G9U U10A C12U C13U,1.06
2,U7G U8G G9U U10A U11A C12U,1.31
3,U7G U8G G9U U10A U11A C12G,1.19
4,U7G U8G G9U U10A U11A C12A,1.14
5,U7G U8G G9C U10C C12G C13U,1.27
6,U7G U8G G9C U10C C12G C13A,1.22
7,U7G U8G G9C U10C C12G C13G,1.09
8,U7G U8G G9U C12A C13G,1.1
9,U7G U8G G9U C12A C13U,1.06
10,U7G U8G G9U C12A C13A,1.17
11,U7G U8G G9C U10G C12A,1.14
12,U7G U8G G9C U10G C12G,1.21
13,U7G U8G G9C U10G C12U,1.17
14,U7G U8G G9C U10G U11A C12U C13U,1.1
15,U7G U8G G9C U10G U11A C12U C13A,1.13
16,U7G U8G G9C U10G U11A C12U C13G,1.1
17,U7G U8G G9U U10A C12G C13A,1.07
18,U7G U8G G9U U10A C12G C13U,1.13
19,U7G U8G G9U U10A C12G C13G,1.09
20,U7G U8G G9U U10C U11A C12U C13G,1.37
21,U7G U8G G9U U10C U11A C12U C13A,1.35
22,U7G U8G G9U U10C U11A C12U C13U,1.36
23,U7G U8G G9C U11G C13G,1.16
24,U7G U8G G9C U11G C13A,1.3

row,Variant,aptazyme ON/OFF ratio
1,U7G U8G G9C U11G C13U,1.49
2,U7G U8G G9U U10G C12A,1.44
3,U7G U8G G9U U10G C12U,1.13
4,U7G U8G G9U U10G C12G,1.33
5,U7G U8G G9U U10G C12G C13U,1.35
6,U7G U8G G9U U10G C12G C13A,1.13
7,U7G U8G G9U U10G C12G C13G,1.15
8,U7G U8G G9U U10A U11G,1.27
9,U7G U8G G9U U10A U11C,1.09
10,U7G U8G G9U U10A U11A,2.87
11,U7G U8G G9C U11G C12A C13U,1.3
12,U7G U8G G9C U11G C12A C13G,1.23
13,U7G U8G G9C U11G C12A C13A,1.14
14,U7G U8G G9U U10C U11G C12G C13G,1.15
15,U7G U8G G9U U10C U11G C12G C13A,1.16
16,U7G U8G G9U U10C U11G C12G C13U,1.26
17,U7G U8G G9U U10A U11G C12U C13A,1.1
18,U7G U8G G9U U10A U11G C12U C13G,1.11
19,U7G U8G G9U U10A U11G C12U C13U,1.08
20,U7G U8G G9C U10G U11C C12G C13G,1.05
21,U7G U8G G9C U10G U11C C12G C13U,1.16
22,U7G U8G G9C U10G U11C C12G C13A,1.19
23,U7G U8G G9C U11C,2.07
24,U7G U8G G9C U11G,2.2

row,Variant,aptazyme ON/OFF ratio
1,U7G U8G G9C U11A,4.32
2,U7G U8G G9U U10C U11A C12G C13G,1.15
3,U7G U8G G9U U10C U11A C12G C13A,1.14
4,U7G U8G G9U U10C U11A C12G C13U,1.45
5,U7G U8G G9U U10A U11G C13A,1.07
6,U7G U8G G9U U10A U11G C13G,1.13
7,U7G U8G G9U U10A U11G C13U,1.12
8,U7G U8G G9C U10C U11G C12G C13G,1.17
9,U7G U8G G9C U10C U11G C12G C13A,1.19
10,U7G U8G G9C U10C U11G C12G C13U,1.07
11,U7G U8G G9U U10C U11G C12G,1.39
12,U7G U8G G9U U10C U11G C12U,1.22
13,U7G U8G G9U U10C U11G C12A,1.32
14,U7G U8G G9U U10A U11A C13G,1.08
15,U7G U8G G9U U10A U11A C13A,1.14
16,U7G U8G G9U U10A U11A C13U,1.28
17,U7G U8G G9C U10C U11A C12A C13A,1.33
18,U7G U8G G9C U10C U11A C12A C13G,1.23
19,U7G U8G G9C U10C U11A C12A C13U,1.12
20,U7G U8G G9U U10G U11A C12A,1.13
21,U7G U8G G9C U10C U11A C12A,1.3
22,U7G U8G G9C U10C U11A C12U,1.3
23,U7G U8G G9C U10C U11A C12G,1.32
24,U7G U8G G9C U10G,1.74

row,Variant,aptazyme ON/OFF ratio
1,U7G U8G G9C U11G C12A,1.73
2,U7G U8G G9C U11G C12U,1.31
3,U7G U8G G9C U11G C12G,1.6
4,U7G U8G G9C U10C U11C C12G C13U,1.04
5,U7G U8G G9C U10C U11C C12G C13A,1.05
6,U7G U8G G9C U10C U11C C12G C13G,1.06
7,U7G U8G G9C U11C C12U C13A,1.43
8,U7G U8G G9C U11C C12U C13G,1.37
9,U7G U8G G9C U11C C12U C13U,1.26
10,U7G U8G G9C U10C U11A C12U C13G,1.32
11,U7G U8G G9C U10C U11A C12U C13A,1.36
12,U7G U8G G9C U10C U11A C12U C13U,1.23
13,U7G U8G G9U U10A U11C C12G C13U,1.14
14,U7G U8G G9U U10A U11C C12G C13A,1.08
15,U7G U8G G9U U10A U11C C12G C13G,1.09
16,U7G U8G G9C U11C C13G,1.4
17,U7G U8G G9C U11C C13A,1.4
18,U7G U8G G9C U11C C13U,1.33
19,U7G U8G G9U U10C U11G C13G,1.21
20,U7G U8G G9U U10C U11G C13A,1.22
21,U7G U8G G9U U10C U11G C13U,1.28
22,U7G U8G G9C U10G U11A C12U,1.23
23,U7G U8G G9C U10G U11A C12G,1.16
24,U7G U8G G9C U10G U11A C12A,1.17

row,Variant,aptazyme ON/OFF ratio
1,U7G U8G G9C U10C U11A C12G C13U,1.24
2,U7G U8G G9C U10C U11A C12G C13G,1.24
3,U7G U8G G9C U10C U11A C12G C13A,1.28
4,U7G U8G G9U U10C U11C C13G,1.21
5,U7G U8G G9U U10C U11C C13A,1.28
6,U7G U8G G9U U10C U11C C13U,1.37
7,U7G U8G G9C U10G U11A C12A C13G,1.12
8,U7G U8G G9C U10G U11A C12A C13A,1.14
9,U7G U8G G9C U10G U11A C12A C13U,1.11
10,U7G U8G G9U C13U,1.43
11,U7G U8G G9U C13G,1.26
12,U7G U8G G9U C13A,1.44
13,U7G U8G G9U U10C,1.51
14,U7G U8G G9U U10G,1.42
15,U7G U8G G9U U10A,3.21
16,U7G U8G G9C U10G U11C C12U C13G,1.33
17,U7G U8G G9C U10G U11C C12U C13U,1.11
18,U7G U8G G9C U10G U11C C12U C13A,1.15
19,U7G U8G G9U U10C U11C C12U C13A,1.18
20,U7G U8G G9U U10C U11C C12U C13G,1.41
21,U7G U8G G9U U10C U11C C12U C13U,1.37
22,U7G U8G G9C U10G U11G C12G,1.15
23,U7G U8G G9C U10G U11G C12U,1.19

# From the RNAGym collection of RNA variant scans (doi:10.1021/acssynbio.7b00057)
